Experiments:
[1] = biological target: hLysRSΔN65 (human lysyl-tRNA synthetase, N-terminally truncated) (human, UniProt Q15046 66-597, del1-65); assay: fluorescence anisotropy
[2] = biological target: hLysRS (full-length human lysyl-tRNA synthetase) (human, UniProt Q15046 1-597); assay: fluorescence anisotropy
hLysRS (full-length human lysyl-tRNA synthetase), sequence (Q15046 whole entry): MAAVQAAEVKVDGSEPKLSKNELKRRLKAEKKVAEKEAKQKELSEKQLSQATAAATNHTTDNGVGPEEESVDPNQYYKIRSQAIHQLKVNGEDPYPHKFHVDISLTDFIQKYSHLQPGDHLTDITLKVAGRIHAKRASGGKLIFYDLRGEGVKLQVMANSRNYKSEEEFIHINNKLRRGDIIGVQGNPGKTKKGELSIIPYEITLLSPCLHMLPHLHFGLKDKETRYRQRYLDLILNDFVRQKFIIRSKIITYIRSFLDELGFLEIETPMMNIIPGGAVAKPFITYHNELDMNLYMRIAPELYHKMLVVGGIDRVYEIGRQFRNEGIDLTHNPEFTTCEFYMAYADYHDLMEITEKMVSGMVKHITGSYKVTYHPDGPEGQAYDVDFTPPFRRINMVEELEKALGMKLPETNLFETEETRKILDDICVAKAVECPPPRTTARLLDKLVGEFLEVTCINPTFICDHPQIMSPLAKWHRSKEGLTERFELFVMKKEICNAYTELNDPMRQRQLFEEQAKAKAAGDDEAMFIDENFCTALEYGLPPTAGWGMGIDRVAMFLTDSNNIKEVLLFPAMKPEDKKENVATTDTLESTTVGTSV

hLysRSΔN65 (human lysyl-tRNA synthetase, N-terminally truncated), sequence (Q15046 66-597, stated change not applied): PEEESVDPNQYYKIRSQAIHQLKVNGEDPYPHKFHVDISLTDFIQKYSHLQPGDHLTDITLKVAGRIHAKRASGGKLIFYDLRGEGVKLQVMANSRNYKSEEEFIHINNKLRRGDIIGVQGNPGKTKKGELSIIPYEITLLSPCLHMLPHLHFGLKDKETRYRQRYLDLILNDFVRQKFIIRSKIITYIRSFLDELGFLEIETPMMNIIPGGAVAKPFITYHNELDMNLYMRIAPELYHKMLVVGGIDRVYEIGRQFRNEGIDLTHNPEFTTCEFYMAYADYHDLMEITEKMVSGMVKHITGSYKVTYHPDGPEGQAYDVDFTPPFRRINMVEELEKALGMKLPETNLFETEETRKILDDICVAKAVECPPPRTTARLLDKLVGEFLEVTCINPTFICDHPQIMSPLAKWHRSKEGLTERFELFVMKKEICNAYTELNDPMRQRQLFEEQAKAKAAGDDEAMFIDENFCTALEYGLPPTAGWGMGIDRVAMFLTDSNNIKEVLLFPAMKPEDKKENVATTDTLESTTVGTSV

Binder | binding result [1] | binding result [2]
GGGCUUUAAAGUGAAAGCCC (structured_RNA) [HP2] | no binding | 
GGCGACGGUGUAAAAAUCUCGCC (structured_RNA) [HP1 (A-rich stem-loop)] | no binding | no binding

Reference: PMC5689005
